Source: patent US20240043519A1 (OHIO STATE INNOVATION FOUNDATION, published 2024)

What was measured:
[1] = biological target: T1, NOTCH2 (human, UniProt Q04721 26-2471); assay: co-immunoprecipitation, THP-1 cells and human AML patient blasts (figure legend)
T1 construct: whole, on cells; Endogenous protein from cell lysates (co-IP); also called NOTCH2 protein
Procedure: (§1) Cell lysate of 10×10⁶ THP-1 cells or 5×10⁶ human AML patient blasts (n=2) were subjected to CO-IP with Protein G Plus/Protein A agarose beads.
(§2) Cells (1-5×10⁶) were lysed in 400 μl of Pierce Co-Immunoprecipitation lysis buffer (Thermo Scientific) supplemented with protease and phosphatase inhibitors (Roche). Cell lysis was performed on ice for 20 min and the cell lysate was sonicated for 5 sec three times. After centrifugation with 14,000 g at 4° C. for 15 min, the cell lysate supernatant was transferred to new tubes immediately and added to 50% Protein G Plus/Protein A agarose beads (EMD Millipore, Tremecula, CA, USA) with a ratio of 100 μl for a lml sample solution. After incubation with rotation at 4° C. for 1 h, and the mixture was centrifuged at 14,000 g for 10 min at 4° C. The supernatant was transferred to new tubes, added with 2-20 μg antibody and incubated on rotating shaker at 4° C. overnight. After centrifugation, the supernatant was incubated with 50 μl proteinA/G agarose at 4° C. with rotation for 2 h. The agarose beads were washed five times with ice-cold Pierce Co-Immunoprecipitation lysis buffer. Then 20 μl 2×loading buffer was added, boiled for 5 min and subjected to Western blotting. The corresponding normal antibodies were applied as negative control for CO-IP.

[2] = biological target: T2, NOTCH1 (human, UniProt P46531 19-2555); assay: as above
T2 construct: whole, on cells; Endogenous protein from cell lysates (antibody array, co-IP); also called NOTCH1 protein
Procedure: as §1, §2

T1 sequence (Q04721 26-2471): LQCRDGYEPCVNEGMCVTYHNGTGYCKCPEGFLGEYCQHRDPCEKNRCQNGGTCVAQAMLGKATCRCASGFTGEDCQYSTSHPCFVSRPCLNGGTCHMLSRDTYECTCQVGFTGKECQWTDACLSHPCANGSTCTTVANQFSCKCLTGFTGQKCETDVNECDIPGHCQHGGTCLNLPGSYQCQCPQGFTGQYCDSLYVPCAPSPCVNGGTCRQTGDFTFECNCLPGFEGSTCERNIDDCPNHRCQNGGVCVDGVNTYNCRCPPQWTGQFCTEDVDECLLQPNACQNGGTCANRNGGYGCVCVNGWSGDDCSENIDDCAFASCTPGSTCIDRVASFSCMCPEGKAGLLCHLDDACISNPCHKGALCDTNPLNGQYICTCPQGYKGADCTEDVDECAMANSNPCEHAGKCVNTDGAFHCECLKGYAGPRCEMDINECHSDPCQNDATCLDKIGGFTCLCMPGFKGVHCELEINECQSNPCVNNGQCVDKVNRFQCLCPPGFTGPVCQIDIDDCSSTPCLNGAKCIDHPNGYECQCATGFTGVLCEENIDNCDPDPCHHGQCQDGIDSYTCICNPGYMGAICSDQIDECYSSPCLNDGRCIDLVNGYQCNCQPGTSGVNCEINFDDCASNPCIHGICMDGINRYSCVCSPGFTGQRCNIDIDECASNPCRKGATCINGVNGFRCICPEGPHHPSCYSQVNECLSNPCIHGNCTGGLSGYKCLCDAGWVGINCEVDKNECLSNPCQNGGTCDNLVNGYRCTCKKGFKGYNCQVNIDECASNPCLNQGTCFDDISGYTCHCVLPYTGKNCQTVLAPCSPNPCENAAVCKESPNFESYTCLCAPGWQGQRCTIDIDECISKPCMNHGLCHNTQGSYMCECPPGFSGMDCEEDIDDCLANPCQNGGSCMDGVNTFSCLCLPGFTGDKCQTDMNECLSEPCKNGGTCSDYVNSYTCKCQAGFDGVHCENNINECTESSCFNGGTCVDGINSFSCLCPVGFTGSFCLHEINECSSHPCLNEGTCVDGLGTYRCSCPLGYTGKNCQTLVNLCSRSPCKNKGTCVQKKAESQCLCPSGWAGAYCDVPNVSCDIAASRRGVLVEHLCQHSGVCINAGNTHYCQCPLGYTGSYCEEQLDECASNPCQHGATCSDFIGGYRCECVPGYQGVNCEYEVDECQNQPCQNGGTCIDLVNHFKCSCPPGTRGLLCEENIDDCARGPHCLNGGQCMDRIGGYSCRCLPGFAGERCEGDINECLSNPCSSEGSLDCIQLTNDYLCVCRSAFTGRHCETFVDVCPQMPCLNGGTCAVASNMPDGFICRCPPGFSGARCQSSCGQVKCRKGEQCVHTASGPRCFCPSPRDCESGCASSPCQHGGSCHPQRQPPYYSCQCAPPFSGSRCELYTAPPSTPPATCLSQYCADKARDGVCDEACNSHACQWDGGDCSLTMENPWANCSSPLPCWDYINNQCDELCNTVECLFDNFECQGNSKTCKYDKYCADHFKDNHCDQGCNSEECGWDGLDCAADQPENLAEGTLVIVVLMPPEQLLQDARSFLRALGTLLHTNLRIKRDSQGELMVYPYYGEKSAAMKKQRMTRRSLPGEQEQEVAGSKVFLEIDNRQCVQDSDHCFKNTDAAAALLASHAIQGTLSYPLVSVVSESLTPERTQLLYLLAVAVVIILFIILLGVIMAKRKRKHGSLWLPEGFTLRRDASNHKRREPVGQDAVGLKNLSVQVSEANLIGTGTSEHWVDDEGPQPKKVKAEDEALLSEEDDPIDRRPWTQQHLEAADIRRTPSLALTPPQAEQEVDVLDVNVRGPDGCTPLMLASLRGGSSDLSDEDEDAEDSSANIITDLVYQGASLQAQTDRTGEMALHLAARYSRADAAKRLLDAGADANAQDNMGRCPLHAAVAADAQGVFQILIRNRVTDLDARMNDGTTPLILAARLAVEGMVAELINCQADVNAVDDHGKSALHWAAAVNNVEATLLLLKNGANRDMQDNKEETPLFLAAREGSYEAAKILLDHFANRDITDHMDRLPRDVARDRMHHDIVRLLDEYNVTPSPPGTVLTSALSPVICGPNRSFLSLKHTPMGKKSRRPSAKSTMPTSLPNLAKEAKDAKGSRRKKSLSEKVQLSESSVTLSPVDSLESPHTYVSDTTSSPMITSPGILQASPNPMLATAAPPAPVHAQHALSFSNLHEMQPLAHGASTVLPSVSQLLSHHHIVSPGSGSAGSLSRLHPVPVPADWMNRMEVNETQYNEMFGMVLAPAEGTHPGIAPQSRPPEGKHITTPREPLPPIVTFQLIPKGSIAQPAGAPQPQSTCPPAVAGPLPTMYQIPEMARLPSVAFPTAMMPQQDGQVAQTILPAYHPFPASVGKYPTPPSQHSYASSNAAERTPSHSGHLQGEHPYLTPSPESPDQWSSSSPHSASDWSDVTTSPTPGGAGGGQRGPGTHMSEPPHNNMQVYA

binding result [1]: binds
binding result [2]: binds
B1: EGFL7 protein (endogenous, in lysates of human AML cells: Kasumi-1, THP-1, primary AML patient blasts) (ligand)
chain: TEHAYRPGRRVCAVRAHGDPVSESFVQRVYQPFLTTCDGHRACSTYRTIYRTAYRRSPGLAPARPRYACCPGWKRTSGLPGACGAAICQPPCRNGGSCVQPGRCRCPAGWRGDTCQSDVDECSARRGGCPQRCVNTAGSYWCQCWEGHSLSADGTLCVPKGGPPRVAPNPTGVDSAMKEEVQRLQSRVDLLEEKLQLVLAPLHSLASQALEHGLPDPGSLLVHSFQQLGRIDSLSEQISFLEEQLGSCSCKKDS
notes: Endogenous protein immunoprecipitated from cell lysates; also called Epidermal growth factor-like domain 7
